This note sets out measurements from article doi:10.1101/2025.11.10.687720, “Magnetosome organelles are organized through interactions between McaA and McaB that alter the dynamics of the bacterial actin-like protein MamK” (bioRxiv, 2025).

This series concerns the molecule itself. Put plainly: co-sedimentation; pelleting assay, each protein at 1 μM in polymerization buffer (10 mM Tris-HCl pH 7.5, 25 mM KCl, 2 mM MgCl2, 1 mM DTT) with or without 1 mM ATP, 25°C for 10 min, 100,000 x g for 30 min at 4°C; SDS-PAGE of pellet and supernatant.

B1: untagged recombinant MamK (natural protein, Magnetospirillum magneticum AMB-1, UniProt Q2W8Q6 1-347, looked up)
chain: MSEGEGQAKNRLFLGIDLGTSHTAVMSSRGKKFLLKSVVGYPKDVIGLKLLGRPYVVGDEAFEMRSYLDIRYPLQDGVLSEISDRDIEVARHLLTHVVKSAEPGPNDEICAVIGVPARASAANKALLLKMAQEVVHTALVVSEPFMVGYGLDKLINTIIVDIGAGTTDICALKGTVPGPEDQVTLTKAGNYVDERLQNAILERHPELQMNVNVACAVKEQFSFVGTPTEVASFEFRAAGKPVRADVTEPVKIACEALMPDIIESIETLLRSFQPEYQATVLQNIVFAGGGSRIRGLAAYVKEKLRPFGDANVTCVKDPTFDGCRGALRLAEELPPQYWRQLGDVSGS
notes: MamK, bacterial actin-like protein; 37.6 kDa as printed; The monomeric fractions were pooled; the protein forms filaments with ATP; also called purified MamK; MamK filaments; source: E. coli BL21, purified (ammonium sulfate precipitation, anion exchange, gel filtration)
On to B1, for which the binding result was “binds”.
